From article PMC11915744

Molecular target: NS1 used in the SPR assay (UniProt P03496)
Assay: SPR

Sequence of UniProt P03496 (P03496 whole entry): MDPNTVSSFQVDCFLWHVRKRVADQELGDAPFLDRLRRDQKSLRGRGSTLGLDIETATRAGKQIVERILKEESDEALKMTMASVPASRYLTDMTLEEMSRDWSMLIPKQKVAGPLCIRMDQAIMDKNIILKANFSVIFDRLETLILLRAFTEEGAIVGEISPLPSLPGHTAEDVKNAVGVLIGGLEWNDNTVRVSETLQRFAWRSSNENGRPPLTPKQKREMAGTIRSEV

Substance: hnRNPH1 used in the SPR assay (from UniProt P31943 1-449) (natural protein)
- Kd: 10.4 µM
